From the supplement of paper PMC6755084

B1: minF1; the commonest letter at each place (parent)
chain: GAGACCGCAACTGAAAAGTTGTTATCAGAAATGGATGGGTTGAATTTCTGCACGTAGAAGCAAAAGGC

Variants of: B1
Assay: fraction ligated after 30 min (ligated reads / total reads); higher = more ligase activity
Conditions: with F1*subA RNA substrate (template-directed ligation), 42 °C
Outline: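 Oligo-pool templates of minimized ligase ribozyme variants were PCR-amplified, T7-transcribed and gel-purified. Ligated and unligated RNAs were gel-separated, reverse transcribed with barcoded primers, and MiSeq-sequenced; core bases were filtered at quality ≥30. Fraction ligated per variant was ligated reads over total reads.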
GAGACCGCAACTGAAAAGTTGTTATCAGAATTGGATGGGTTGACTTTCTGCACGTAGAAGCAAAAGGC [A31T A44C] gave a fraction ligated of 0.745. GAGACCGCAACTGAAAAGTTGTTATCAGAATTGGATGGGTTGAGTTTCTGCACGTAGAAGCAAAAGGC [A31T A44G] showed a fraction ligated of 0.82. GAGACCGCAACTGAAAAGTTGTTATCAGAATTGAATGGGTTGAATTTCTGCACGTAGAAGCAAAAGGC [A31T G34A] gave a fraction ligated of 0.071. GAGACCGCAACTGAAAAGTTGTTATCAGAATTGCATGGGTTGAATTTCTGCACGTAGAAGCAAAAGGC [A31T G34C] was tested, and the fraction ligated was 0.00659. For GAGACCGCAACTGAAAAGTTGTTATCAGAATTGTATGGGTTGAATTTCTGCACGTAGAAGCAAAAGGC [A31T G34T], the fraction ligated was 0.0067. For GAGACCGCAACTGAAAAGTTGTTATCAGAAGAGGATGGGTTGAATTTCTGCACGTAGAAGCAAAAGGC [A31G T32A], the fraction ligated was 0.073. GAGACCGCAACTGAAAAGTTGTTATCAGAAGGGGATGGGTTGAATTTCTGCACGTAGAAGCAAAAGGC [A31G T32G] was tested, and the fraction ligated was 0.0239. Variant GAGACCGCAACTGAAAAGTTGTTATCAGAAGCGGATGGGTTGAATTTCTGCACGTAGAAGCAAAAGGC [A31G T32C] has a fraction ligated of 0.00833. For GAGACCGCAACTGAAAAGTTGTTATCAGAAGTGGAGGGGTTGAATTTCTGCACGTAGAAGCAAAAGGC [A31G T36G], the fraction ligated was 0.0415. With GAGACCGCAACTGAAAAGTTGTTATCAGAAGTGGACGGGTTGAATTTCTGCACGTAGAAGCAAAAGGC [A31G T36C] the fraction ligated was 0.0127. Work on GAGACCGCAACTGAAAAGTTGTTATCAGAAGTGGAAGGGTTGAATTTCTGCACGTAGAAGCAAAAGGC [A31G T36A] yielded a fraction ligated of 0.0331. Variant GAGACCGCAACTGAAAAGTTGTTATCAGAATTGGATGGGTTGTATTTCTGCACGTAGAAGCAAAAGGC [A31T A43T] has a fraction ligated of 0.215. For GAGACCGCAACTGAAAAGTTGTTATCAGAATTGGATGGGTTGGATTTCTGCACGTAGAAGCAAAAGGC [A31T A43G], the fraction ligated was 0.157. GAGACCGCAACTGAAAAGTTGTTATCAGAATTGGATGGGTTGCATTTCTGCACGTAGAAGCAAAAGGC [A31T A43C] showed a fraction ligated of 0.157. For GAGACCGCAACTGAAAAGTTGTTATCAGAAAAGGATGGGTTGAATTTCTGCACGTAGAAGCAAAAGGC [T32A], the fraction ligated was 0.0612. In the case of GAGACCGCAACTGAAAAGTTGTTATCAGAAAAGTATGGGTTGAATTTCTGCACGTAGAAGCAAAAGGC [T32A G34T], the fraction ligated is reported as 0.00436. GAGACCGCAACTGAAAAGTTGTTATCAGAAAAGAATGGGTTGAATTTCTGCACGTAGAAGCAAAAGGC [T32A G34A] gave a fraction ligated of 0.00575. For GAGACCGCAACTGAAAAGTTGTTATCAGAAAAGCATGGGTTGAATTTCTGCACGTAGAAGCAAAAGGC [T32A G34C], the fraction ligated was 0.0031. GAGACCGCAACTGAAAAGTTGTTATCAGAAAAGGATGGGTTGACTTTCTGCACGTAGAAGCAAAAGGC [T32A A44C] showed a fraction ligated of 0.0377. For GAGACCGCAACTGAAAAGTTGTTATCAGAAAAGGATGGGTTGAGTTTCTGCACGTAGAAGCAAAAGGC [T32A A44G], the fraction ligated was 0.0595. For GAGACCGCAACTGAAAAGTTGTTATCAGAAAAGGATGGGTTGATTTTCTGCACGTAGAAGCAAAAGGC [T32A A44T], the fraction ligated was 0.163. Variant GAGACCGCAACTGAAAAGTTGTTATCAGAAAAAGATGGGTTGAATTTCTGCACGTAGAAGCAAAAGGC [T32A G33A] has a fraction ligated of 0.032. For GAGACCGCAACTGAAAAGTTGTTATCAGAAAACGATGGGTTGAATTTCTGCACGTAGAAGCAAAAGGC [T32A G33C], the fraction ligated was 0.0102. GAGACCGCAACTGAAAAGTTGTTATCAGAAAATGATGGGTTGAATTTCTGCACGTAGAAGCAAAAGGC [T32A G33T] was tested, and the fraction ligated was 0.0384. For GAGACCGCAACTGAAAAGTTGTTATCAGAAGTGGATGGGTTGAATTTCTGCACGTAGAAGCAAAAGGC [A31G], the fraction ligated was 0.805. Variant GAGACCGCAACTGAAAAGTTGTTATCAGAATTGGATGGGTTGAATTTCTGCACGTAGAAGCAAAAGGC [A31T] has a fraction ligated of 0.815. For GAGACCGCAACTGAAAAGTTGTTATCAGAATTGGTTGGGTTGAATTTCTGCACGTAGAAGCAAAAGGC [A31T A35T], the fraction ligated was 0.0356. Variant GAGACCGCAACTGAAAAGTTGTTATCAGAATTGGCTGGGTTGAATTTCTGCACGTAGAAGCAAAAGGC [A31T A35C] has a fraction ligated of 0.0159. With GAGACCGCAACTGAAAAGTTGTTATCAGAATTGGGTGGGTTGAATTTCTGCACGTAGAAGCAAAAGGC [A31T A35G] the fraction ligated was 0.339. Work on GAGACCGCAACTGAAAAGTTGTTATCAGAATCGGATGGGTTGAATTTCTGCACGTAGAAGCAAAAGGC [A31T T32C] yielded a fraction ligated of 0.0483. For GAGACCGCAACTGAAAAGTTGTTATCAGAATAGGATGGGTTGAATTTCTGCACGTAGAAGCAAAAGGC [A31T T32A], the fraction ligated was 0.0898. GAGACCGCAACTGAAAAGTTGTTATCAGAATGGGATGGGTTGAATTTCTGCACGTAGAAGCAAAAGGC [A31T T32G] showed a fraction ligated of 0.0242. Work on GAGACCGCAACTGAAAAGTTGTTATCAGAACTGGAGGGGTTGAATTTCTGCACGTAGAAGCAAAAGGC [A31C T36G] yielded a fraction ligated of 0.0226. GAGACCGCAACTGAAAAGTTGTTATCAGAACTGGACGGGTTGAATTTCTGCACGTAGAAGCAAAAGGC [A31C T36C] gave a fraction ligated of 0.0114. Variant GAGACCGCAACTGAAAAGTTGTTATCAGAATTGGACGGGTTGAATTTCTGCACGTAGAAGCAAAAGGC [A31T T36C] has a fraction ligated of 0.0101. In the case of GAGACCGCAACTGAAAAGTTGTTATCAGAATTGGAAGGGTTGAATTTCTGCACGTAGAAGCAAAAGGC [A31T T36A], the fraction ligated is reported as 0.0236. Variant GAGACCGCAACTGAAAAGTTGTTATCAGAATTGGAGGGGTTGAATTTCTGCACGTAGAAGCAAAAGGC [A31T T36G] has a fraction ligated of 0.0351. Work on GAGACCGCAACTGAAAAGTTGTTATCAGAATTGGATGGGTTAAATTTCTGCACGTAGAAGCAAAAGGC [A31T G42A] yielded a fraction ligated of 0.495. Work on GAGACCGCAACTGAAAAGTTGTTATCAGAATTGGATGGGTTTAATTTCTGCACGTAGAAGCAAAAGGC [A31T G42T] yielded a fraction ligated of 0.193. With GAGACCGCAACTGAAAAGTTGTTATCAGAATTGGATGGGTTCAATTTCTGCACGTAGAAGCAAAAGGC [A31T G42C] the fraction ligated was 0.0234.
